Where a chain is given by its changes, count along the chain named.

Results on 25 molecules are retold here after PMC9407945 (Science immunology, 2022).

B1: humanized SW186 H1L3 (antibody, V domains shown)
VH: QVQLVQSGAEVKKPGSSVKVSCKASGVAFSSYWMNWVRQAPGQGLEWMGQIYPGDGDTNYNGKFKGRVTITADKSTSTAYMELSSLRSEDTAVYYCARGFIATVEETMDYWGQGTLVTVSS
VL: DIQMTQSPSSLSASVGDRVTITCRASQDISNYLNWYQQKPGKAPKLLIYYTSRLHSGVPSRFSGSGSGTDYTLTISSLQPEDFATYFCQQSHTLPWTFGGGTKLEIK
B2: humanized SW186 H2L1 (antibody, V domains shown)
VH: B1 VH with M48I, Y95F
VL: B1 VL with Y71F, F87Y
B3: humanized SW186 H1L2 (antibody, V domains shown)
VH: B1 VH
VL: B1 VL with Y71F
B4: humanized SW186 H4L3 (antibody, V domains shown)
VH: B1 VH with R38K, M48I, R67K, V68A, Y95F
VL: B1 VL
B5: humanized SW186 H3L1 (antibody, V domains shown)
VH: B1 VH with M48I, V68A, Y95F
VL: B1 VL with Y71F, F87Y
B6: humanized SW186 H1L4 (antibody, V domains shown)
VH: B1 VH
VL: B1 VL with A43T, P44V
B7: humanized SW186 H2L2 (antibody, V domains shown)
VH: B1 VH with M48I, Y95F
VL: B1 VL with Y71F
B8: humanized SW186 H3L3 (antibody, V domains shown)
VH: B1 VH with M48I, V68A, Y95F
VL: B1 VL
B9: humanized SW186 H2L3 (antibody, V domains shown)
VH: B1 VH with M48I, Y95F
VL: B1 VL
B10: humanized SW186 H4L2 (antibody, V domains shown)
VH: B1 VH with R38K, M48I, R67K, V68A, Y95F
VL: B1 VL with Y71F
B11: humanized SW186 H4L4 (antibody, V domains shown)
VH: B1 VH with R38K, M48I, R67K, V68A, Y95F
VL: B1 VL with A43T, P44V
B12: humanized SW186 H3L2 (antibody, V domains shown)
VH: B1 VH with M48I, V68A, Y95F
VL: B1 VL with Y71F
B13: humanized SW186 H2L4 (antibody, V domains shown)
VH: B1 VH with M48I, Y95F
VL: B1 VL with A43T, P44V
B14: humanized SW186 H3L4 (antibody, V domains shown)
VH: B1 VH with M48I, V68A, Y95F
VL: B1 VL with A43T, P44V
B15: humanized SW186 H4L1 (antibody, V domains shown)
VH: B1 VH with R38K, M48I, R67K, V68A, Y95F
VL: B1 VL with Y71F, F87Y
B16: SW186 (murine variable regions, murine-human chimeric) (Fab, V domains shown)
VH: QVQLQQSGAELVKPGASVKISCKASGVAFSSYWMNWVKQRPGKGLEWIGQIYPGDGDTNYNGKFKGKATLTADKSSSTAYMQLSSLSSEDSAVYFCARGFIATVEETMDYWGQGTSVTVSS
VL: DIQMTQTTSSLSASLGDRVTISCRASQDISNYLNWYQQKPDGTVKLLIYYTSRLHSGVPSRFSGSGSGTDYSLTISNLEQEDIATYFCQQSHTLPWTFGGGTKLEIK
B17: humanized SW186 H1L1 (antibody, V domains shown)
VH: B1 VH
VL: B1 VL with Y71F, F87Y
B18: humanized SW186 H3L3 (antibody, V domains shown)
VH: B1 VH with M48I, V68A, Y95F
VL: B1 VL
B19: humanized SW186 H4L1 (antibody, V domains shown)
VH: B1 VH with R38K, M48I, R67K, V68A, Y95F
VL: B1 VL with Y71F, F87Y
B20: humanized SW186 H4L4 (antibody, V domains shown)
VH: B1 VH with R38K, M48I, R67K, V68A, Y95F
VL: B1 VL with A43T, P44V
B21: humanized SW186 H4L3 (antibody, V domains shown)
VH: B1 VH with R38K, M48I, R67K, V68A, Y95F
VL: B1 VL
B22: humanized SW186 H4L2 (antibody, V domains shown)
VH: B1 VH with R38K, M48I, R67K, V68A, Y95F
VL: B1 VL with Y71F
B23: humanized SW186 H3L4 (antibody, V domains shown)
VH: B1 VH with M48I, V68A, Y95F
VL: B1 VL with A43T, P44V
B24: humanized SW186 H3L2 (antibody, V domains shown)
VH: B1 VH with M48I, V68A, Y95F
VL: B1 VL with Y71F
B25: SW186 Fab (Fab, V domains shown)
VH: B16 VH
VL: B16 VL

The target in one assay is SARS-CoV-2 spike ectodomain (S-ecto), Wuhan-hu-1 strain, 2P (SARS-CoV-2, Wuhan-hu-1, UniProt P0DTC2, 2P mutation at residues 986 and 987 | 2P mutation at residues 986 and 987, biotin (NHS-sulfo-LC-Biotin, EZ-link biotinylation kit)). Briefly: BLI. To be noted: both partners purified.
For B1, the Kd is 4.37 nM, the koff stood at 0.000598 s⁻¹ and the kon stood at 137000 M⁻¹ s⁻¹.
Molecule B2 gave a Kd of 18.1 nM, a koff of 0.00078 s⁻¹ and a kon of 43100 M⁻¹ s⁻¹.
Regarding B3, the Kd is 26.2 nM, the koff came to 0.00126 s⁻¹ and the kon came to 48200 M⁻¹ s⁻¹.
The like results for B4 were, in that order, 2.4 nM, 0.000424 s⁻¹ and 177000 M⁻¹ s⁻¹.
B5: the Kd came out at 6.69 nM, the koff was 0.00119 s⁻¹ and the kon turned out to be 178000 M⁻¹ s⁻¹.
B6: the Kd came to 5.03 nM, the koff turned out to be 0.000519 s⁻¹ and the kon was found to be 103000 M⁻¹ s⁻¹.
The like results for B7 were, in that order, 12.6 nM, 0.00151 s⁻¹ and 120000 M⁻¹ s⁻¹.
The molecule B8 yielded a Kd of 5.82 nM, a koff of 0.000761 s⁻¹ and a kon of 131000 M⁻¹ s⁻¹.
The like results for B9 were, in that order, 3.72 nM, 0.000713 s⁻¹ and 191000 M⁻¹ s⁻¹.
As to B10, the Kd was 5.86 nM, the koff was determined as 0.000953 s⁻¹ and the kon was found to be 163000 M⁻¹ s⁻¹.
Molecule B11 gave a Kd of 1.57 nM, a koff of 0.000338 s⁻¹ and a kon of 216000 M⁻¹ s⁻¹.
On to B12, for which the Kd turned out to be 6.09 nM, the koff was determined as 0.00122 s⁻¹ and the kon came out at 201000 M⁻¹ s⁻¹.
Turning to B13, the Kd was determined as 3.14 nM, the koff stood at 0.000603 s⁻¹ and the kon was 192000 M⁻¹ s⁻¹.
The like results for B14 were, in that order, 2.6 nM, 0.000469 s⁻¹ and 181000 M⁻¹ s⁻¹.
B15 returned a Kd of 4.14 nM, a dissociation rate constant (koff) of 0.00077 s⁻¹ and a kon of 186000 M⁻¹ s⁻¹.
Consider B16, for which the Kd was 1.09 nM, the koff came to 0.000128 s⁻¹ and the kon was determined as 117000 M⁻¹ s⁻¹.

In another assay the target is SARS-CoV-2 spike ectodomain (S-ecto), Wuhan-hu-1, 2P (SARS-CoV-2, Wuhan-hu-1, UniProt P0DTC2, 2P mutation at residues 986 and 987, biotinylated (EZ-link NHS-sulfo-LC-Biotin) for the BLI assay). Put plainly: BLI. To be noted: both partners purified.
In turn, B17 returned a Kd of 10 nM.
B18 gave a Kd of 5.82 nM.
B19: the Kd is 4.14 nM.
Take B20: the Kd stood at 1.57 nM.
On the same count and under the same terms, with B21 the figure was 2.4 nM.
With B22, binding was put at a Kd of 5.86 nM.
Consider B23, for which the Kd came out at 2.6 nM.
For B24, the Kd amounted to 6.09 nM.
Same read-out and setting: with B25 the figure was 1.09 nM.
